Residue numbers refer to the chain shown, from its start.
B1: 178K 1F4 mAb: mouse monoclonal antibody raised against E1-KLH (56); IgG2b, κ; heavy chain SEQ ID NO 85, light chain SEQ ID NO 109 (antibody)
heavy: MNFGLSLIFLALILKGVQCEVQLVESGGDLVRPGGSLKLSCAASGFIFTNYVMSWVRQTPDKRLEWVATINSVGRYTYYTDSVKGRLTISRNNAKNTLYLQMNSLKSEDTAIYYCAGGNNLDFWGQGTTLTVSSAKTTPPSVYPLAPGCGDTTGSSVTLGCLVKGYFPESVTVTWNSGSLSSSVHTFPALLQSGLYTMSSSVTVPSSTWLSQTVTCSVAHPASSTTVDKKLEPSGPISTIKPCPPCKECHKCPAPNLEGGPSVFIFPPNIKDVLMISLTPKVTCVVVDVSEDDPDVQISWFVNNVEVHTAQTQTHREDYNSTIRVVSALPIQHQDWMSGKEFKCKVNNKDLPSPIERTISKIKGLVRAPQVYILPPPAEQLSRKDVSLTCLVVGFNPGDISVEWTSNGHTEENYKDTAPILDSDGSYFIYSKLNMKTSKWEKTDSFSCNVRHEGLKNNYLKKTISRSPGK
light: MRFSAQLLGLLVLWIPGSTADIVMTQAAFSNPVTLGTSASISCRSSKSLLHSNGITYLYWYLQKPGQSPQLLIYQMSNLASGVPDRFSSSGSGTDFTLRISRVEAEDVGVYYCGQDLELPYSFGGGTKLEIKRADAAPTVSIFPPSSEQLTSGGASVVCFLNNFYPKDINVKWKIDGSERQNGVLNSWTDQDSKDSTYSMSSTLTLTKDEYERHNSYTCEATHKTSTSPIVKSFNRNEC
B2: 178K 4E11 mAb: mouse monoclonal antibody raised against E1-KLH (56); IgG2b, κ; heavy chain SEQ ID NO 89, light chain SEQ ID NO 113 (antibody)
heavy: B1 heavy with R32K, I47T, T49S, K62M, V73G, T80P, L87F, N92D, F123Y
light: B1 light with H51Q, S52R, Q75R, S122T
B3: 178H 2A7 mAb: mouse monoclonal antibody raised against E1-KLH (56); IgG1, κ; heavy chain SEQ ID NO 82, light chain SEQ ID NO 106 (antibody)
heavy: MNFGLSLISLALILKGVQCEVHLVESGGDLVKPGGSLKLSCAASGFTFSSYVMSWVRQTPDKRLEWIATISYGGGHYTYYPDSVKGRFTISRDNAKNTLYLQMNSLKSDDTAMYYCSSGNALNYWGQGTSVTVSSAKTTPPSVYPLAPGSAAQTNSMVTLGCLVKGYFPEPVTVTWNSGSLSSGVHTFPAVLQSDLYTLSSSVTVPSSTWPSQTVTCNVAHPASSTKVDKKIVPRDCGCKPCICTVPEVSSVFIFPPKPKDVLTITLTPKVTCVVVDISKDDPEVQFSWFVDDVEVHTAQTKPREEQINSTFRSVSELPIMHQDWLNGKEFKCRVNSAAFPAPIEKTISKTKGRPKAPQVYTIPPPKEQMAKDKVSLTCMITNFFPEDITVEWQWNGQPAENYKNTQPIMDTDGSYFVYSKLNVQKSNWEAGNTFTCSVLHEGLHNHHTEKSLSHSPGK
light: B1 light with S52Y, N53T, G125S
B4: 178K 1E11 mAb: mouse monoclonal antibody raised against E1-KLH (56); IgG2b, κ; heavy chain SEQ ID NO 183, light chain SEQ ID NO 185 (antibody)
heavy: MNFGLSLIFLALILKGVQCEVQLVESGGDFVKPGGSLKLSCAASGFTFSNYVMSWVRQTPDKRLEWVATINSGGRYTYYPDSVKGRFTISRDNAKNTLYLQMNSLKSDDTAIYYCSGGNYLDYWGQGTTLTVSSAKTTPPSVYPLAPGCGDTTGSSVTLGCLVKGYFPESVTVTWNSGSLSSSVHTFPALLQSGLYTMSSSVTVPSSTWLSQTVTCSVAHPASSTTVDKKLEPSGPISTIKPCPPCKECHKCPAPNLEGGPSVFIFPPNIKDVLMISLTPKVTCVVVDVSEDDPDVQISWFVNNVEVHTAQTQTHREDYNSTIRVVSALPIQHQDWMSGKEFKCKVNNKDLPSPIERTISKIKGLVRAPQVYILPPPAEQLSRKDVSLTCLVVGFNPGDISVEWTSNGHTEENYKDTAPILDSDGSYFIYSKLNMKTSKWEKTDSFSCNVRHEGLKNNYLKKTISRSPGK
light: B1 light with H51Q, S52R, Y59H, Q75R, D85E, S122T
B5: 178H 4B1 mAb: mouse monoclonal antibody raised against E1-KLH (56); IgG2b, κ; heavy chain SEQ ID NO 83, light chain SEQ ID NO 107 (antibody)
heavy: MNFGLSLIFLALILKGLQCEVQLVESGGDLVKPGGSLKLSCAASGFTFSRNVMSWVRQTPDKRLEWVATISSGGVHTYYLDSVKGRFTIFRDNAKNTLYLQMNSLQSEDTAMYYCAAGNALDYWGQGTSVTVSSAKTTPPSVYPLAPGCGDTTGSSVTLGCLVKGYFPESVTVTWNSGSLSSSVHTFPALLQSGLYTMSSSVTVPSSTWPSQTVTCSVAHPASSTTVDKKLEPSGPISTINPCPPCKECHKCPAPNLEGGPSVFIFPPNIKDVLMISLTPKVTCVVVDVSEDDPDVRISWFVNNVEVHTAQTQTHREDYNSTIRVVSALPIQHQDWMSGKEFKCKVNNKDLPSPIERTISKIKGLVRAPQVYILPPPAEQLSRKDVSLTCLVVGFNPGDISVEWTSNGHTEENYKDTAPVLDSDGSYFIYSKLDIKTSKWEKTDSFSCNVRHEGLKNYYLKKTISRSPGK
light: B1 light with V23M, A39G, G125S

Legend:
E1-OVA (55) = assay: ELISA binding of hybridoma supernatant to E1-OVA (55) coated plates, without inhibitor; conditions: hybridoma supernatant mixed with PBS alone
Experimental: All ELISA steps were performed at rt. Wells of a Nunc Maxi-Sorp™ flat-bottom ELISA plates (ThermoFisher Scientific, Waltham, MA) were coated with 50 μL E1-OVA (55), E2-OVA (65), and E3-OVA (72) at a concentration of 1 μg/mL in PBS for 1 h. The plates were flicked dried and remaining binding sites were blocked with 200 μL per well of blocking solution (0.5% casein, 0.05% (v/v) Tween 20 in PBS) for one hour. Plates were washed six times with MilliQ water containing 0.05% (v/v) Tween 20 on Biotek 405 LS plate washer equipped with microplate Biostacker 3 (Biotek, Winooski, VT). 50 μL of serially diluted antibody samples (serial dilutions of serum, hybridoma supernatant, or monoclonal antibodies in PBS) were added to each well and incubated for one hour. Unbound antibodies were removed by washing as described above, and 50 μL of secondary goat anti-rabbit IgG HRP or goat anti-mouse IgG (Fc)-HRP conjugate (ThermoFisher Scientific, USA), diluted 1:3,000 in the blocking solution was added to each well for detection bound rabbit or mouse antibody, respectively. Plates were incubated for one hour, washed and 100 μL of TMB substrate (Moss, Pasadena, MD) was added for 15 min to determine bound peroxidase. Optical density (OD) of the samples at 650 nm was measured using an ELISA plate reader (Molecular Devices LLC., San Jose, CA). The titer of each serum sample was designated as the maximum dilution that yielded at least twice the absorbance of the same dilution of the nonimmune control serum.
(§1) The supernatants were screened in a competitive ELISA for the presence of anti-ecstasy compound monoclonal antibodies (mAbs) as follows. 25 μL of the hybridoma supernatant was mixed with equal volume of PBS alone or containing 20 μg/mL inhibitor (MDA or MDMA) were incubated for 1 h in the wells of E1-OVA (55) coated ELISA plates. The plates were washed and the presence of bound mAbs were detected using goat anti-mouse IgG (Fc)-HRP conjugate and TMB substrate as described above. The level of inhibition of mAb/E1-OVA (55) binding in the presence of the inhibitor was estimated using a Percent (%) Inhibition calculated by the below formula:
[formula] • where “OD650 nm w/o Inhibitor” is the binding response of the antibody sample diluted in PBS alone (with no inhibitor), and the “OD650 nm with Inhibitor” is the binding response of the same antibody sample in the presence of 10 μg/mL of inhibitor (i.e., MDA or MDMA). […]

[1] = Competitive ELISA screening of hybridoma supernatants on E1-OVA (55), inhibitor MDA; type: binding; conditions: for E1-OVA (55) Binding, OD650 nm +MDA: hybridoma supernatant in the presence of 10 μg/mL MDA; for % Inhibition by 10 μg/mL of MDA: inhibition of mAb/E1-OVA (55) binding
Experimental: (§2) Competitive ELISA was used to assess the presence of anti-Ecstasy-class antibodies in animal sera, hybridoma supernatants, and monoclonal antibody (mAb) samples as well as to estimate the level of antibody cross reactivity to amphetamine (Amph) and methamphetamine (mAmph). Antisera and antibody samples were used at the dilution giving a response of about OD=1 at 650 nm (OD650 nm) in an indirect ELISA. Hybridoma supernatants were diluted 1:2 in PBS. (±)-MDMA, (±)-MDA, (±)-amphetamine, and (±)-methamphetamine were used as inhibitors (Cerilliant Corporation, Round Rock, TX). Microtiter ELISA plates were coated and blocked as described above for indirect ELISA. The inhibitors were serially diluted in PBS. 25 μL of the diluted inhibitor was mixed with 25 μL of fixed appropriate antiserum or antibody sample dilution. The mixture was incubated over the E1-OVA (55) solid phase for 1 h. The plates were washed as described above and the bound antibodies were detected with anti-rabbit or anti-mouse IgG HRP-conjugates and TMB substrate as described above.
as §1
(§3) [formula] • where “OD650 nm w/o Inhibitor” is the binding response of the antibody sample diluted in PBS alone (with no inhibitor), and the “OD650 nm with Inhibitor” is the binding response of the same antibody sample in the presence of 10 μg/mL of inhibitor (i.e., MDA or MDMA).

[2] = Competitive ELISA screening of hybridoma supernatants on E1-OVA (55), inhibitor MDMA; type: binding; conditions: for E1-OVA (55) Binding, OD650 nm +MDMA: hybridoma supernatant in the presence of 10 μg/mL MDMA; for % Inhibition by 10 μg/mL of MDMA: inhibition of mAb/E1-OVA (55) binding
Experimental: as §2, §1, §3

[3] = Prototype EMIT ecstasy assay, cross-reactivity with amphetamine; type: biochemical; conditions: conjugate Compound 58; negative urine pool
[4] = Prototype EMIT ecstasy assay, cross-reactivity with methamphetamine; type: biochemical; conditions: conjugate Compound 58; negative urine pool
[5] = Competitive ELISA of purified antibodies on E1-OVA (55), amphetamine and methamphetamine cross reactivity; type: binding
Experimental: as §2
(§4) The anti-ecstasy class mAbs were purified from clarified and filtered hybridoma culture supernatants on a recombinant Protein A Sepharose Fast Flow (GE Life Sciences, Boston USA), dialyzed against PBS containing 0.02% sodium azide and stored at 4° C. The purified mAbs were tested for MDA and MDMA reactivity as well as amphetamine (Amph) and methamphetamine (mAmph) cross reactivity in a competitive assay.

[6] = Competitive ELISA of purified antibodies on E1-OVA (55), MDMA and MDA reactivity; type: binding; conditions: 10,000-0.1 ng/mL range of drug concentration
Experimental: as §2, §4

Molecule	E1-OVA (55) Binding, OD650 nm w/o inhib (E1-OVA (55)) [OD650 nm]	E1-OVA (55) Binding, OD650 nm +MDA [1] [OD650 nm]	% Inhibition by 10 μg/mL of MDA [1] [%]	E1-OVA (55) Binding, OD650 nm +MDMA [2] [OD650 nm]	% Inhibition by 10 μg/mL of MDMA [2] [%]	Concentrations (μg/mL) of Structurally Related Compounds Equivalent to 500 ng/mL MDMA Cutoffs, (+/−) Amph [3] [µg/mL]	Concentrations (μg/mL) of Structurally Related Compounds Equivalent to 500 ng/mL MDMA Cutoffs, (+/−) mAmph [4] [µg/mL]	cross reactivity in the presence of 1,000 ng/ml of Amph or mAmph [5]	relative sensitivity to MDMA and MDA in competitive ELISA [6]
B1	3.012	0.254	93	0.359	88	30	30	do not show any significant cross reactivity	–
B2	1.930	0.091	95	0.088	95	40 to 45	50 to 60	do not show any significant cross reactivity	–
B3	2.900	–	–	–	–	40 to 45	30 to 40	–	–
B4	3.390	0.316	91	0.301	91	–	–	do not show any significant cross reactivity	–
B5	3.164	0.105	97	0.093	98	40	40 to 50	–	bind MDMA stronger than MDA

Reference: US20260234121A1, “DERIVATIVES, IMMUNOGENS, AND ANTIBODIES AND USE OF THE SAME IN DETECTION OF ECSTASY-CLASS COMPOUNDS” (Siemens Healthcare Diagnostics Inc., priority 2023, published 2026)
